Results: patent US20230212587A1, “Mutant Hydroxyphenylpyruvate Dioxygenase Polypeptide, Encoding Gene Thereof and Use Therefor” (Beijing Dabeinong Biotechnology Co., Ltd., priority 2019, published 2023)

System: Arabidopsis thaliana T1 plants
Assay: Topramezone tolerance of transgenic Arabidopsis thaliana T1 plants (pesticide damage grade by bleached leaf area, score, resistance evaluation)
Assay type: in vivo
Details: HPPDs from ecotypes of Triticum aestivum; for Classification and statistics of pesticide damage grade: Grade 0 / Classification and statistics of pesticide damage grade: Grade 1 / Classification and statistics of pesticide damage grade: Grade 2 / Classification and statistics of pesticide damage grade: Grade 3: number of plants
In short: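 Herbicide tolerance was judged per plant on a bleaching scale (grade 0 no bleaching to grade 3 fully bleached) 7 DAT. Topramezone doses were 0, 25, 50 and 100 g ai/ha on 18-day-old T1 and wild-type plants.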

Row | Molecule | Resistance evaluation (topramezone 25 g ai/ha (1x)) | Scores (topramezone 25 g ai/ha (1x)) | Classification and statistics of pesticide damage grade: Grade 0 (topramezone 25 g ai/ha (1x)) | Classification and statistics of pesticide damage grade: Grade 1 (topramezone 25 g ai/ha (1x)) | Classification and statistics of pesticide damage grade: Grade 2 (topramezone 25 g ai/ha (1x)) | Classification and statistics of pesticide damage grade: Grade 3 (topramezone 25 g ai/ha (1x)) | Resistance evaluation (topramezone 100 g ai/ha (4x)) | Scores (topramezone 100 g ai/ha (4x)) | Classification and statistics of pesticide damage grade: Grade 0 (topramezone 100 g ai/ha (4x)) | Classification and statistics of pesticide damage grade: Grade 1 (topramezone 100 g ai/ha (4x)) | Classification and statistics of pesticide damage grade: Grade 2 (topramezone 100 g ai/ha (4x)) | Classification and statistics of pesticide damage grade: Grade 3 (topramezone 100 g ai/ha (4x))
1 | TaHPPD5-02: native HPPD of Triticum aestivum ecotype 5, UniProt A0A3B6NNK0, SEQ ID NO: 201 (protein, listed as Triticum aestivum, TaHPPD5 Amino Acid Sequence) MPPTPTTPAATGAAAVTPEHARPRRMVRFNPRSDRFHTLAFHHVEFWCADAASAAGRFAFALGAPLAARSDLSTGNSVHASQLLRSGNLAFLFTAPYANGCDAATASLPSFSADAARQFSADHGLAVRSIALRVADAAEAFRASVDGGARPAFSPVDLGRGFGFAEVELYGDVVLRFVSHPDGRDVPFLPGFEGVSNPDAVDYGLTRFDHVVGNVPELAPAAAYVAGFTGFHEFAEFTTEDVGTAESGLNSMVLANNSEGVLLPLNEPVHGTKRRSQIQTFLEHHGGSGVQHIAVASSDVLRTLREMRARSAMGGFDFLPPPLPKYYEGVRRIAGDVLSEAQIKECQELGVLVDRDDQGVLLQIFTKPVGDRPTLFLEMIQRIGCMEKDELFKSIEDYEKSLEAKQSAAVQGS | non-resistant (non-resistant plants (scores 68-100)) | 83 | 0 | 0 | 8 | 8 | non-resistant (non-resistant plants (scores 68-100)) | 96 | 0 | 0 | 2 | 14
2 | TaHPPD5m-F372A-02: Triticum aestivum ecotype 5 HPPD mutant F372A, SEQ ID NO: 204 (protein, TaHPPD5m-F372A Amino Acid Sequence) MPPTPTTPAATGAAAVTPEHARPRRMVRFNPRSDRFHTLAFHHVEFWCADAASAAGRFAFALGAPLAARSDLSTGNSVHASQLLRSGNLAFLFTAPYANGCDAATASLPSFSADAARQFSADHGLAVRSIALRVADAAEAFRASVDGGARPAFSPVDLGRGFGFAEVELYGDVVLRFVSHPDGRDVPFLPGFEGVSNPDAVDYGLTRFDHVVGNVPELAPAAAYVAGFTGFHEFAEFTTEDVGTAESGLNSMVLANNSEGVLLPLNEPVHGTKRRSQIQTFLEHHGGSGVQHIAVASSDVLRTLREMRARSAMGGFDFLPPPLPKYYEGVRRIAGDVLSEAQIKECQELGVLVDRDDQGVLLQIATKPVGDRPTLFLEMIQRIGCMEKDELFKSIEDYEKSLEAKQSAAVQGS | highly resistant (highly resistant plants (scores 0-15)) | 0 | 16 | 0 | 0 | 0 | moderately resistant (moderately resistant plants (scores 16-33)) | 23 | 6 | 9 | 1 | 0
3 | TaHPPD4-02: native HPPD of Triticum aestivum ecotype 4, UniProt A0A3B6NLC6, SEQ ID NO: 195 (protein, listed as Triticum aestivum, TaHPPD4 Amino Acid Sequence) MPPTPTTPAATGAAAVTPEHARPRRMVRFNPRSDRFHTLAFHHVEFWCADAASAAGRFAFALGAPLAARSDLSTGNSVHASQLLRSGNLAFLFTAPYANGCDAATASLPSFSADAARQFSADHGLAVRSIALRVADAAEAFRASVDGGARPAFSPVDLGRGFGFAEVELYGDVVLRFVSHPDGRDVPFLPGFEGVSNPDAVDYGLTRFDHVVGNVPELAPAAAYVAGFTGFHEFAEFTTEDVGTAESGLNSMVLANNSEGVLLPLNEPVHGTKRRSQIQTFLEHHGGSGVQHIAVASSDVLRTLREMRARSAMGGFDFLPPPLPKYYEGVRRIAGDVLSEAQIKECQELGVLVDRDDQGVLLQIFTKPVGDRPTLFLEMIQRIGCMEKDERGEEYQKGGCGGFGKGNFSELFKSIEDYEKSLEAKQSAAVQGS | non-resistant (non-resistant plants (scores 68-100)) | 92 | 0 | 0 | 4 | 12 | non-resistant (non-resistant plants (scores 68-100)) | 100 | 0 | 0 | 0 | 16
4 | TaHPPD4m-F372A-02: Triticum aestivum ecotype 4 HPPD mutant F372A, SEQ ID NO: 198 (protein, TaHPPD4m-F372A Amino Acid Sequence) MPPTPTTPAATGAAAVTPEHARPRRMVRFNPRSDRFHTLAFHHVEFWCADAASAAGRFAFALGAPLAARSDLSTGNSVHASQLLRSGNLAFLFTAPYANGCDAATASLPSFSADAARQFSADHGLAVRSIALRVADAAEAFRASVDGGARPAFSPVDLGRGFGFAEVELYGDVVLRFVSHPDGRDVPFLPGFEGVSNPDAVDYGLTRFDHVVGNVPELAPAAAYVAGFTGFHEFAEFTTEDVGTAESGLNSMVLANNSEGVLLPLNEPVHGTKRRSQIQTFLEHHGGSGVQHIAVASSDVLRTLREMRARSAMGGFDFLPPPLPKYYEGVRRIAGDVLSEAQIKECQELGVLVDRDDQGVLLQIATKPVGDRPTLFLEMIQRIGCMEKDERGEEYQKGGCGGFGKGNFSELFKSIEDYEKSLEAKQSAAVQGS | highly resistant (highly resistant plants (scores 0-15)) | 0 | 16 | 0 | 0 | 0 | highly resistant (highly resistant plants (scores 0-15)) | 10 | 11 | 5 | 0 | 0
5 | TaHPPD6-02: native HPPD of Triticum aestivum ecotype 6, UniProt A0A3B5YPS5, SEQ ID NO: 207 (protein, listed as Triticum aestivum, TaHPPD6 Amino Acid Sequence) MVRFNPGSDRFHTLAFHHIEFWCTDAASADGRFAFSLGAPLAARSDLSTGNSTHASQLLRPGSLAFLFTAPYANGCIFSVDAARRFFADHGLAVRSVALRVADAAKAFRASVDGGARPAFAPVDLGRGFGFAEVKLYGDVVLRFVSHPDGTDVPFLPGLFEGVSNPGAVHYGLTRFDHIVGNVPELAPAAAYVAGLTGFHEFAEFTTEDVGTAQSGLNSVVLANTSEGVPLLLNEPVHGTKRRRQIQTFLEHHGGPGVQHIAVASSEVFRTLREMHARSSMGGFDFLPPPLPKYYEGVRRLAGDVLSEAQIKECQELGVLVNRDDQGVLLQIFTKPVGDRPTFFLEMIQRIGCMEKDERGEEYQKGGCGGFGKGNISELFKSIEDYEKSLEAKQSAAVQGSYI | non-resistant (non-resistant plants (scores 68-100)) | 88 | 0 | 0 | 6 | 10 | non-resistant (non-resistant plants (scores 68-100)) | 96 | 0 | 0 | 2 | 14
6 | TaHPPD6m-F372A-02: Triticum aestivum ecotype 6 HPPD mutant F372A, SEQ ID NO: 210 (protein, TaHPPD6m-F372A Amino Acid Sequence) MVRFNPGSDRFHTLAFHHIEFWCTDAASADGRFAFSLGAPLAARSDLSTGNSTHASQLLRPGSLAFLFTAPYANGCIFSVDAARRFFADHGLAVRSVALRVADAAKAFRASVDGGARPAFAPVDLGRGFGFAEVKLYGDVVLRFVSHPDGTDVPFLPGLFEGVSNPGAVHYGLTRFDHIVGNVPELAPAAAYVAGLTGFHEFAEFTTEDVGTAQSGLNSVVLANTSEGVPLLLNEPVHGTKRRRQIQTFLEHHGGPGVQHIAVASSEVFRTLREMHARSSMGGFDFLPPPLPKYYEGVRRLAGDVLSEAQIKECQELGVLVNRDDQGVLLQIATKPVGDRPTFFLEMIQRIGCMEKDERGEEYQKGGCGGFGKGNISELFKSIEDYEKSLEAKQSAAVQGSYI | highly resistant (highly resistant plants (scores 0-15)) | 0 | 16 | 0 | 0 | 0 | highly resistant (highly resistant plants (scores 0-15)) | 2 | 15 | 1 | 0 | 0
